Results taken from the MegaScale stability set (Tsuboyama et al. 2023).

B1: r11_951_TrROS_Hall (parent)
chain: KKKYVIKVYFEDTGKEVEIEAESKEEALEAAKRLAEELGLKIKKVEIYP
B2: EEHEE_rd3_0130 (parent)
chain: TKIIVNGKTFTAPTEEEAQKIAEKLAKKAGLTVHKKNGTFELK

Variants of: B1
Assay: folding stability dG (cDNA display proteolysis); higher = more stable
Conditions: PBS, room temperature

Variant	folding stability dG
Y48S	4.2 kcal/mol
Y48R	4.36 kcal/mol
Y48H	4.44 kcal/mol
Y48D	4.13 kcal/mol
Y48E	4.1 kcal/mol
Y48W	4.51 kcal/mol
Y48F	4.64 kcal/mol
Y48P	4.09 kcal/mol
Y48C	4.46 kcal/mol
Y48A	4.25 kcal/mol
Y48Q	4.37 kcal/mol
Y48M	4.4 kcal/mol
Y48K	4.2 kcal/mol
Y48T	4.52 kcal/mol
Y48G	4.33 kcal/mol
Y48L	4.44 kcal/mol
Y48N	4.45 kcal/mol
Y48V	4.45 kcal/mol
Y48I	4.43 kcal/mol
P49K	4.5 kcal/mol
P49I	4.72 kcal/mol
P49A	4.33 kcal/mol
P49V	4.45 kcal/mol
P49E	4.66 kcal/mol
P49W	4.59 kcal/mol
P49Q	4.71 kcal/mol
P49Y	4.78 kcal/mol

Variant	folding stability dG
P49M	4.69 kcal/mol
P49R	4.5 kcal/mol
P49S	4.62 kcal/mol
P49G	4.49 kcal/mol
P49D	4.59 kcal/mol
P49C	4.52 kcal/mol
P49N	4.68 kcal/mol
P49L	4.62 kcal/mol
P49T	4.62 kcal/mol
P49F	4.6 kcal/mol
P49H	4.93 kcal/mol
I47E	4.33 kcal/mol
I47K	3.7 kcal/mol
I47F	4.32 kcal/mol
I47V	4.33 kcal/mol
I47Q	4.25 kcal/mol
I47P	4.04 kcal/mol
I47R	3.79 kcal/mol
I47H	4.35 kcal/mol
I47G	4.06 kcal/mol
I47M	4.53 kcal/mol
I47T	4.17 kcal/mol
I47L	4.48 kcal/mol
I47N	3.89 kcal/mol
I47S	4.24 kcal/mol
I47Y	4.47 kcal/mol
I47W	4.49 kcal/mol

Variants of: B2
Assay: as above
Conditions: PBS, room temperature

Variant	folding stability dG
V5W	1.48 kcal/mol
V5T	-0.197 kcal/mol
V5C	1.63 kcal/mol
V5G	-0.75 kcal/mol
V5R	-0.49 kcal/mol
V5S	-0.322 kcal/mol
V5P	-0.548 kcal/mol
V5I	1.13 kcal/mol
V5M	0.826 kcal/mol
V5H	0.397 kcal/mol
V5E	-0.633 kcal/mol
V5L	0.73 kcal/mol
V5Q	-0.462 kcal/mol
V5K	-0.361 kcal/mol
V5N	-0.497 kcal/mol
V5D	-0.878 kcal/mol
V5Y	1.4 kcal/mol
V5F	1.31 kcal/mol
V5A	0.171 kcal/mol
K2H	0.273 kcal/mol
K2Q	0.574 kcal/mol
K2C	1.16 kcal/mol
K2A	0.458 kcal/mol

Variant	folding stability dG
K2F	0.565 kcal/mol
K2E	0.085 kcal/mol
K2W	0.519 kcal/mol
K2R	0.793 kcal/mol
K2D	0.156 kcal/mol
K2S	0.364 kcal/mol
K2G	-0.359 kcal/mol
K2P	0.169 kcal/mol
K2V	0.501 kcal/mol
K2I	0.742 kcal/mol
K2N	0.108 kcal/mol
K2M	0.746 kcal/mol
K2Y	0.641 kcal/mol
K2T	0.448 kcal/mol
K2L	0.93 kcal/mol
I4Y	0.689 kcal/mol
I4S	0.124 kcal/mol
I4P	-0.499 kcal/mol
I4L	0.583 kcal/mol
I4V	0.695 kcal/mol
I4A	-0.213 kcal/mol
I4W	0.365 kcal/mol
I4E	-0.066 kcal/mol

Variant	folding stability dG
I4Q	0.068 kcal/mol
I4D	-0.441 kcal/mol
I4K	0.465 kcal/mol
I4N	-0.074 kcal/mol
I4M	0.561 kcal/mol
I4T	0.449 kcal/mol
I4H	0.173 kcal/mol
I4R	0.615 kcal/mol
I4G	-0.461 kcal/mol
I4F	0.575 kcal/mol
I3S	-0.742 kcal/mol
I3W	-0.228 kcal/mol
I3L	-0.098 kcal/mol
I3T	-0.896 kcal/mol
I3H	-0.416 kcal/mol
I3P	-0.552 kcal/mol
I3E	-0.908 kcal/mol
I3Q	-0.664 kcal/mol
I3D	-0.633 kcal/mol
I3V	0.523 kcal/mol
I3F	0.035 kcal/mol
I3R	-0.394 kcal/mol
I3Y	0.08 kcal/mol

Variant	folding stability dG
I3M	-0.368 kcal/mol
T1N	0.378 kcal/mol
T1C	0.97 kcal/mol
T1H	1.05 kcal/mol
T1W	2.99 kcal/mol
T1S	0.636 kcal/mol
T1A	0.581 kcal/mol
T1M	0.565 kcal/mol
T1R	0.322 kcal/mol
T1Y	2.19 kcal/mol
T1I	1.37 kcal/mol
T1F	2.15 kcal/mol
T1K	0.145 kcal/mol
T1G	0.627 kcal/mol
T1E	-0.989 kcal/mol
T1D	-0.934 kcal/mol
T1P	0.553 kcal/mol
T1V	1.28 kcal/mol
T1L	0.508 kcal/mol
T1Q	0.151 kcal/mol
G7C	0.961 kcal/mol
G7F	0.265 kcal/mol
G7E	-0.721 kcal/mol

Variant	folding stability dG
G7D	-0.326 kcal/mol
G7A	0.007 kcal/mol
N6A	0.745 kcal/mol
N6W	1.47 kcal/mol
N6I	0.222 kcal/mol
N6P	-0.076 kcal/mol
N6H	0.793 kcal/mol
N6E	0.325 kcal/mol
N6K	0.266 kcal/mol
N6S	0.36 kcal/mol
N6G	1.02 kcal/mol
N6Y	1.42 kcal/mol
N6D	0.319 kcal/mol
N6R	0.555 kcal/mol
N6M	0.863 kcal/mol
N6Q	0.329 kcal/mol
N6T	-0.318 kcal/mol
N6V	-0.097 kcal/mol
N6C	2.05 kcal/mol
N6F	1.61 kcal/mol
N6L	0.861 kcal/mol
